Target: human CTLA-4 (as crystallised with 4003-1 (VH)) (human, UniProt P16410)
Assay: crystal structure

Sequence of human CTLA-4 (as crystallised with 4003-1 (VH)) (P16410 36-154): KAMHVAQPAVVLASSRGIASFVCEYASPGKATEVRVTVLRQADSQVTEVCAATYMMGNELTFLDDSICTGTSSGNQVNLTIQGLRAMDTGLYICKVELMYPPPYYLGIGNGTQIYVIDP

- binding result: binds
B1: 4003-1 (VH) (VHH)
VHH: EVQLVESGGGLIQPGGSLRLSCAVSGFTVSKNYMSWVRQAPGKGLEWVSVVYSGGSKTYADSVKGRFTISRDNSKNTLYLQMNSLRAEDTAVYYCARAVPHSPSSFDIWGQGTMVTVSS

— paper PMC9371702 (Proceedings of the National Academy of Sciences of the …, 2022)
